The conditions of the data set: Escherichia coli (strain K12); pH 7.8; 25 °C; Urea; CD; Potassium phosphate 10 mM; transition: 3; reversible: yes (>90%); whole UniProt chain shown.

Values joined by “and” are separate entries in the source; they are usually repeats but may differ in a detail not shown here. Identical values can stand only once.

B1: Tryptophan synthase alpha chain wild type, P0A877 (protein)
chain: MERYESLFAQLKERKEGAFVPFVTLGDPGIEQSLKIIDTLIEAGADALELGIPFSDPLADGPTIQNATLRAFAAGVTPAQCFEMLALIRQKHPTIPIGLLMYANLVFNKGIDEFYAQCEKVGVDSVLVADVPVEESAPFRQAALRHNVAPIFICPPNADDDLLRQIASYGRGYTYLLSRAGVTGAENRAALPLNHLVAKLKEYNAAPPLQGFGISAPDQVKAAIDAGAAGAISGSAIVKIIEQHINEPEKMLAALKVFVQPMKAATRS
B1: the denaturant m value is 2.2 kcal/mol/M and 1.2 kcal/mol/M; the “denaturant midpoint (higher = more stable)” value is 2.62 M and 4.18 M; the unfolding free energy was 5.7 kcal/mol and 5 kcal/mol.
